Results: US20080280828A1

How the values were obtained:
[1] = target: guinea pig IgG (Sigma) (guinea pig); test: SPR (BIAcore 2000); normalised to binding of fSGED6 to IgG, corrected for relative molar amount of ligand
[2] = target: rat recombinant IgE (Serotech) (rat); test: as above
[3] = target: rabbit IgG F(ab')2 fragment (ICN) (rabbit); test: as above
[4] = target: human IgG Fc fragment (ICN) (human); test: as above
[5] = target: guinea pig IgG (Sigma) (guinea pig); test: SPR (BIAcore 2000); RBA further normalised to amount of protein against fSGED6
[6] = target: rat recombinant IgE (Serotech) (rat); test: as above
[7] = target: rabbit IgG F(ab')2 fragment (ICN) (rabbit); test: as above
[8] = target: human IgG Fc fragment (ICN) (human); test: as above
[9] = target: rat recombinant IgE (Serotech) (rat); test: SPR (BIAcore 2000); ratio of RBA on IgE to RBA on guinea pig IgG
[10] = target: guinea pig IgG (Sigma) (guinea pig); test: SPR (BIAcore 2000), Ig immobilised on CM5 chip, tick sample as analyte
[11] = target: rat recombinant IgE (Serotech) (rat); test: as above
[12] = target: rabbit IgG F(ab')2 fragment (ICN) (rabbit); test: as above
[13] = target: human IgG Fc fragment (ICN) (human); test: as above
[14] = target: human IgG Fc fragment (ICN) (human); test: SPR (BIAcore 2000); ratio of RBA on Fc to RBA on F(ab')2

Sequence of rat recombinant IgE (Serotech) (rat) (P01855 whole entry, the tested form may be a part): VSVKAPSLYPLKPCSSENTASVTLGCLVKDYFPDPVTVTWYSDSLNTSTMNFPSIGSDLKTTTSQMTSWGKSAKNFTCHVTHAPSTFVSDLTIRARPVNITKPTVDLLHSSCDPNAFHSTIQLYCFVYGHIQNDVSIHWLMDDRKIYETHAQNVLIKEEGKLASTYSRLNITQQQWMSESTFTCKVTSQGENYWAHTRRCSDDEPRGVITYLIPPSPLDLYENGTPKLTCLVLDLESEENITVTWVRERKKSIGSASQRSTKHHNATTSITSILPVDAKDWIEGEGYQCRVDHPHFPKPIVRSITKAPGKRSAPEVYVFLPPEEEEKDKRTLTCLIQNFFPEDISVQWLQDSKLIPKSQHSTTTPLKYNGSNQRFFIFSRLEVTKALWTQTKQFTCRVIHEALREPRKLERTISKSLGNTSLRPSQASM

Substance | Relative binding activity (RBA) [1] | Relative binding activity (RBA) [2] | Relative binding activity (RBA) [3] | Relative binding activity (RBA) [4] | RBA/mg protein [5] | RBA/mg protein [6] | RBA/mg protein [7] | RBA/mg protein [8] | RBAIgE/RBAIgG [9] | Yield-binding (RU2) [10] | Yield-binding (RU2) [11] | Yield-binding (RU2) [12] | Yield-binding (RU2) [13] | RBAFc/RBAF(ab′)2 [14]
partially fed (day 6) female tick salivary gland extract | 1 | 1.3 | 0 | 1.1 | 1 | 1.3 | 0 | 1.1 | 1.2 | 263 RU | 283 RU | 13 RU | 748 RU | –
partially fed (day 6) male tick salivary gland extract | 2.7 | 3.6 | 2.2 | 2.4 | 5.5 | 7.3 | 4.5 | 4.9 | 1.2 | 719 RU | 762 RU | 823 RU | 1720 RU | 1.1
partially fed (day 7), dopamine-stimulated female tick saliva | 19.4 | 23.6 | 7.5 | 8.2 | 775 | 943 | 301 | 328 | 1.2 | 5100 RU | 4960 RU | 2770 RU | 5830 RU | 1.1
